We go through 3 molecules from patent US7727972B2, “Methods for determining absorption of cobalamin or analogues thereof” (DrugTech Corporation, priority 2004, dated 2010).

The target of assay [1] is T1, TC-bound 57Co cobalamin (cyanocobalamin-transcobalamin complex) (Homo sapiens, UniProt P20062).
T1 construct: from tissue; host or cells: human donor serum
T1 sequence (P20062 19-427): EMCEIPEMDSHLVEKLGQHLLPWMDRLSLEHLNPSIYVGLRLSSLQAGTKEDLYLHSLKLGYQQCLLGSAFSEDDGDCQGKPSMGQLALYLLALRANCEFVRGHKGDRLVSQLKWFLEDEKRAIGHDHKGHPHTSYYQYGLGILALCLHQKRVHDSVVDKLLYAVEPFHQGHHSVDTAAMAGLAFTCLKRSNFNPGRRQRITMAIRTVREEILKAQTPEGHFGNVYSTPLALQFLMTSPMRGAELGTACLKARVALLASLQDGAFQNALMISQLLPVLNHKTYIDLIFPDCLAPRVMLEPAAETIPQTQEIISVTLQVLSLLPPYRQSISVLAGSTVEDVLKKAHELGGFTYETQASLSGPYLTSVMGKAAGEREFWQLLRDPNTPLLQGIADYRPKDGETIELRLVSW
Description: Release of 57Co cyanocobalamin from transcobalamin using proteases. The assay is classed as biochemical. Conditions: 50 U protease, human donor serum, TC captured on antibody-coated magnetic microspheres; 15 min (chymotrypsin 45 min); FIG. 1. As to the method:
25 μl tracer solution and 2.5 μl cyanocobalamin solution were added to 400 μl human donor serum. Tris-HCl 0.1 M pH 7.4 was run as a control. After addition of 50 μl capturing reagent, the samples were incubated on a coulter mixer for 1 hour at room temperature. The samples were placed in a magnetic rack for 3 minutes for separation of the capturing reagent. Subsequently, the rack was inverted and incubated for another 3 minutes. The supernatant was discarded and 500 μl of washing buffer was added. The samples were vortexed and placed in the magnetic rack for 3 minutes. Subsequently, the rack was inverted again and the samples were incubated for another 3 minutes. After separation, the washing buffer was discarded and 50 U of subtilisin Carlsberg, in 200 μl Tris-HCl 0.1 M pH 7.4 5 mM Ca^2+, was added. After incubation for 15 minutes at 50° C. in a shaking water bath, the samples were put on a magnetic rack for 3 minutes for separation of the capturing reagent. The rack was inverted and incubated for another 3 minutes. The supernatant was discarded and the pellet was counted for 5 minutes on a gamma counter.
Similar experiments were performed with proteinase K (50 U) in Tris-HCl 0.1 M pH 7.4 5 mM Ca^2+ incubated at 37° C., thermolysin (50 U) in Tris-HCl 0.1 M pH 7.4 5 mM Ca^2+ 5 mM Zn^2+, and chymotrypsin (50 U) in Tris-HCl 0.1 M pH 7.4 incubated for 45 min. at 37° C. […]

Assay [2] concerns Anti haptocorrin antibodies (ELISA). Kind of assay: Cross-reactivity of the haptocorrin ELISA towards other cobalamin binding proteins. Details: species or system rabbit. The conditions noted are these: 100 nmol/L in the assay mixture. The procedure:
Antibodies. Anti haptocorrin was produced by DakoCytomation A/S, Denmark by immunising rabbits with 200 μg pure haptocorrin produced as previously described (12) and deglycosylated as described above. The gamma globulin fraction was pre-pared (13) from serum obtained after 7 immunisations.
ELISA. The principle of the ELISA assay used was an immobilised capture antibody (0.1 ug gamma globulin/well, rabbit nr F7773) catching the analyte and a biotinylated detection antibody (gamma globulin 3 ug/L, rabbit nr 7772) visualised by avidin/Horse Radish Peroxidase (HRP). Colour development by addition of 3,3′,5,5′-tetramethyl-benzidin was proportional to the concentration of analyte. The assay procedure was as previously described for transcobalamin (14, 15). In brief, calibrator, sample or control (100 μL, final dilution 1:30) was incubated for 1 hour at room temperature prior to washing and incubation for 30 min with the biotinylated detection antibody. The attached biotinylated antibody was detected employing avidin/HRP and colour development was determined by measuring the absorbance at 420 nm and correcting for the absorbance at 620 nm. The calibrator employed was deglycosylated pure human haptocorrin. All samples were run in true duplicates, where deglycosylation was performed on two independent samples.
Samples. […]
In general terms: ELISA stands for enzyme-linked immunosorbent assay.

B1: Proteinase K: proteinase K from Tritrachium album (EC 3.4.21.64) (Sigma Aldrich) (protein, UniProt P06873 106-384, looked up)
Proteinase K: AAQTNAPWGLARISSTSPGTSTYYYDESAGQGSCVYVIDTGIEASHPEFEGRAQMVKTYYYSSRDGNGHGTHCAGTVGSRTYGVAKKTQLFGVKVLDDNGSGQYSTIIAGMDFVASDKNNRNCPKGVVASLSLGGGYSSSVNSAAARLQSSGVMVAVAAGNNNADARNYSPASEPSVCTVGASDRYDRRSSFSNYGSVLDIFGPGTSILSTWIGGSTRSISGTSMATPHVAGLAAYLMTLGKTTAASACRYIADTANKGDLSNIPFGTVNLLAYNNYQA
With B1, in assay [1], the “release of cyanocobalamin from its complex with transcobalamin (counts remaining in the sample)” value is reported as “most effective”.

B2: transcobalamin: cobalamin binding protein; pure TC dissolved in phosphate buffer 0.1 M containing albumin 0.1% (protein, UniProt P20062 19-427, looked up)
Transcobalamin-2: EMCEIPEMDSHLVEKLGQHLLPWMDRLSLEHLNPSIYVGLRLSSLQAGTKEDLYLHSLKLGYQQCLLGSAFSEDDGDCQGKPSMGQLALYLLALRANCEFVRGHKGDRLVSQLKWFLEDEKRAIGHDHKGHPHTSYYQYGLGILALCLHQKRVHDSVVDKLLYAVEPFHQGHHSVDTAAMAGLAFTCLKRSNFNPGRRQRITMAIRTVREEILKAQTPEGHFGNVYSTPLALQFLMTSPMRGAELGTACLKARVALLASLQDGAFQNALMISQLLPVLNHKTYIDLIFPDCLAPRVMLEPAAETIPQTQEIISVTLQVLSLLPPYRQSISVLAGSTVEDVLKKAHELGGFTYETQASLSGPYLTSVMGKAAGEREFWQLLRDPNTPLLQGIADYRPKDGETIELRLVSW
On to B2, for which, in assay [2], the “cross-reactivity in haptocorrin ELISA” value was “No cross-reactivity”.

B3: subtilisin Carlsberg: subtilisin Carlsberg from Bacillus licheniformis (EC 3.4.21.62) (Sigma Aldrich) (protein, UniProt P00780 106-379, looked up)
Subtilisin Carlsberg: AQTVPYGIPLIKADKVQAQGFKGANVKVAVLDTGIQASHPDLNVVGGASFVAGEAYNTDGNGHGTHVAGTVAALDNTTGVLGVAPSVSLYAVKVLNSSGSGSYSGIVSGIEWATTNGMDVINMSLGGASGSTAMKQAVDNAYAKGVVVVAAAGNSGSSGNTNTIGYPAKYDSVIAVGAVDSNSNRASFSSVGAELEVMAPGAGVYSTYPTNTYATLNGTSMASPHVAGAAALILSKHPNLSASQVRNRLSSTATYLGSSFYYGKGLINVEAAAQ
Take B3: in assay [1], the “release of cyanocobalamin from its complex with transcobalamin (counts remaining in the sample)” value is on record as “most effective”.
